The source of these data is patent publication US20020147129A1.

Assay [1] addresses embryonic chicken Ang II receptor (chicken). The assay is described as follows: competition for 125I[Sar1Ile8]Ang II binding, E13 chicken chorioallantoic membranes.
In assay [2] the target is embryonic chicken AT4 receptor (chicken). The assay is described as follows: competition for [125I]Ang IV binding, E13 chicken chorioallantoic membranes.
For assay [3], the target named is AT4 receptor of sheep central nervous system (sheep). The assay can be described thus: competition for [125I]Ang IV binding, sheep cerebellar cortical membranes.
The target is the same in assay [4]. The assay is described as follows: competition for 125I-LVV-haemorphin-7 binding, sheep cerebellar cortical membranes.
In assay [5] the target is angiotensin AT4 receptor of Macaca fascicularis brain (Macaca fascicularis). The assay can be described thus: competition for [125I]Ang IV binding, monkey prefrontal cortical sections.

embryonic chicken Ang II receptor (chicken), sequence (P79785 whole entry): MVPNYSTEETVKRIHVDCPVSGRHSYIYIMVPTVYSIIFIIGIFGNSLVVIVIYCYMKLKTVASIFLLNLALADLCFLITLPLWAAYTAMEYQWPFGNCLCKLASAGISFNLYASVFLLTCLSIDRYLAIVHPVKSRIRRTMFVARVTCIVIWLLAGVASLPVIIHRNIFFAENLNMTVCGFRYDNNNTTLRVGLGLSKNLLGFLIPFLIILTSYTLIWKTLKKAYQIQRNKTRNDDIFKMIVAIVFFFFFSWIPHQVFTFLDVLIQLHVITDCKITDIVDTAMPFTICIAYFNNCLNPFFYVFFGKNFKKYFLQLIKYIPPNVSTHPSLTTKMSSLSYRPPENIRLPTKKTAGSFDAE

For CGP 42112 (peptide), in assay [1], the IC50 (in general, the concentration that gives 50% inhibition) came to 180 nM. Besides, the concentration effective at competing for 50% of the sites in assay [2] stood at 0.5 µM.
“angiotensin II (from UniProt P01019 25-32) (peptide)”: the concentration for half-maximal inhibition (IC50) worked out at 2000 nM in assay [3], 1600 nM in assay [4], 730 nM in assay [5] and 100 nM in assay [1].
“angiotensin III (from UniProt P01019 26-32) (peptide)”: the half-maximal inhibitory concentration (IC50) in assay [3] was found to be 6.9 nM; in assay [4] it was 77 nM; in assay [5], 80 nM.
